Consider 40 sequences from the supplement of paper PMC9732359.

± gives the uncertainty stated by the source.

This data set in a line: protein stability index of a GFP-peptide fusion (yeast GPS) (PSI 1-4); higher = more stable; sorted into four equal gates, so the index is relative within each strain. The procedure, abridged:
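Tiled 17-residue peptides from yeast proteins were fused downstream of GFP on a plasmid that also expresses Cherry, and the pooled library was carried in yeast. Mid-log cultures grown in leucine-free medium were sorted into four equal gates by GFP/Cherry fluorescence ratio. Plasmids from each gate were PCR-amplified and Illumina-sequenced, and reads were assigned to strains by barcodes. Each peptide's protein stability index is the sum, over gates, of the gate's read frequency multiplied by its gate number.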

With NETKKRNFLETVELQVG [RPL1A], the protein stability index is, setting by setting: (doa10∆) 2.96 ± 0.24; (pdr5∆) 2.72 ± 0.23.
Sequence ADVTSNIDSSAQFTFGK [YOR098C/NUP1] gave a protein stability index (doa10∆) of 3.05 ± 0.093, a protein stability index (pdr5∆) of 3.25 ± 0.087, a protein stability index (san1∆) of 2.89 ± 0.091 and a protein stability index (ubr1∆) of 3.13 ± 0.057.
For the sequence LNTLFNPVTLNEDSKAF [NUT1], the protein stability index reads like this: (doa10∆) 2.57 ± 0.062; (pdr5∆) 1.84 ± 0.057; (san1∆) 1.65 ± 0.091; (ubr1∆) 1.92 ± 0.043.
The like results for NATLQALYRVNDLRDMI [UBP6] were, in that order, 2.74 ± 0.096, 2.95 ± 0.093, 3.03 ± 0.062 and 3.05 ± 0.075.
The like results for SKQDVEALIEFIYDTEK [FAS2] were, in that order, 3.23 ± 0.1, 3.17 ± 0.083, 3.04 ± 0.13 and 3.08 ± 0.073.
For the sequence KKALKVRTSATFRLPKT [RPL25], the protein stability index by setting is: (doa10∆) 2.87 ± 0.13; (ubr1∆) 3.18 ± 0.13.
GLIMLNLQPASVINNYL [NUT1] gave a protein stability index (doa10∆) of 1.71 ± 0.063, a protein stability index (pdr5∆) of 1.5 ± 0.098, a protein stability index (san1∆) of 1.15 ± 0.27 and a protein stability index (ubr1∆) of 2 ± 0.071.
The like results for IKENFFERIMILDPQVT [YJL039C/NUP192] were, in that order, 1.3 ± 0.062, 1.33 ± 0.054, 1.29 ± 0.12 and 1.14 ± 0.05.
The like results for AETTFLQDVIALSIADD [RPC53] were, in that order, 2.24 ± 0.07, 1.8 ± 0.065, 1.97 ± 0.12 and 2.18 ± 0.07.
Regarding HKVQTKLTRELEKKFQD [RPS7A], the protein stability index was 2.43 ± 0.066 (doa10∆), 2.01 ± 0.06 (pdr5∆), 2.37 ± 0.091 (san1∆) and 2.54 ± 0.048 (ubr1∆).
KTRVGSVTAQVYKIALR [RPC82] returned a protein stability index (doa10∆) of 1.27 ± 0.11, a protein stability index (pdr5∆) of 1.49 ± 0.068, a protein stability index (san1∆) of 1.5 ± 0.16 and a protein stability index (ubr1∆) of 1.15 ± 0.12.
As for ITKDHKVLARQQLQVLA [FAS2], the protein stability index by setting is: (doa10∆) 1.29 ± 0.044; (pdr5∆) 1.45 ± 0.062; (san1∆) 1.82 ± 0.099; (ubr1∆) 1.3 ± 0.047.
In the same order, the values of LKLPADATTWRYSMSEQ [IRR1] are 2.68 ± 0.071, 2.65 ± 0.058, 2.69 ± 0.065 and 2.5 ± 0.059.
For the sequence EFIFGTYNMIDAAAEKR [ARP7], the protein stability index reads like this: (doa10∆) 2.99 ± 0.057; (pdr5∆) 3.02 ± 0.057; (san1∆) 3.08 ± 0.044; (ubr1∆) 3.12 ± 0.04.
SIWQVKDQLPDLESMGL [MED7] displayed a protein stability index (doa10∆) of 2.81 ± 0.11, a protein stability index (pdr5∆) of 3.04 ± 0.079, a protein stability index (san1∆) of 2.93 ± 0.12 and a protein stability index (ubr1∆) of 3.35 ± 0.097.
In the same order, the values of PKDKAIKRMAIRNIVEA [RPS26A] are 1.25 ± 0.068, 1.63 ± 0.096, 1.9 ± 0.15 and 1.95 ± 0.054.
In the case of VNDVELAFKKNEMLLKR [MTW1], the protein stability index worked out at 3.24 ± 0.19 (doa10∆), 3.46 ± 0.14 (pdr5∆), 3.4 ± 0.14 (san1∆) and 3.11 ± 0.066 (ubr1∆).
On to MIVPVRCFSCGKVVGDK [RPB10], for which the protein stability index runs as follows: (doa10∆) 2.64 ± 0.17; (pdr5∆) 2.59 ± 0.12; (san1∆) 2.13 ± 0.1; (ubr1∆) 2.66 ± 0.092.
Sequence AARYDYAVAEQCPVKSA [QCR2] registered a protein stability index (ubr1∆) of 1.88 ± 0.065.
As for QQQLYGGNNNNNSTGIA [SWI1], the protein stability index is, setting by setting: (doa10∆) 3.12 ± 0.076; (pdr5∆) 3.15 ± 0.066; (san1∆) 3.25 ± 0.053; (ubr1∆) 3.11 ± 0.045.
For PFTDITVEGISKLLREH [RPB2], the protein stability index by setting is: (doa10∆) 2.27 ± 0.076; (pdr5∆) 2.4 ± 0.079; (san1∆) 2.51 ± 0.077; (ubr1∆) 2.42 ± 0.067.
In the same order, the values of YGHVFLGITGLATDVTT [PUP3] are 1.93 ± 0.13, 2.24 ± 0.098, 2.25 ± 0.15 and 2.29 ± 0.1.
In the same order, the values of TIFSPEGRLYQVEYALE [PRE9] are 3.13 ± 0.079, 3.32 ± 0.088, 3.14 ± 0.11 and 3.12 ± 0.051.
ETGNFSWASEGISKKTR [RPS8A]: the protein stability index is, setting by setting: (doa10∆) 3.15 ± 0.037; (pdr5∆) 3.267 ± 0.028; (san1∆) 3.206 ± 0.028; (ubr1∆) 3.228 ± 0.025.
The like results for QVATKYASLKLPNQIPG [YMR129W/POM152] were, in that order, 1.69 ± 0.038, 1.68 ± 0.041, 1.67 ± 0.052 and 1.84 ± 0.029.
The like results for QSAIRPAGQATQKRTHV [RPL4A] were, in that order, 2.83 ± 0.09, 2.8 ± 0.091, 2.72 ± 0.085 and 2.5 ± 0.074.
Consider DESNDIDMIADENGTNS [RPC37], for which the protein stability index is, setting by setting: (doa10∆) 2.44 ± 0.1; (pdr5∆) 2.43 ± 0.07; (san1∆) 2.88 ± 0.11; (ubr1∆) 3.12 ± 0.1.
In the same order, the values of EEARRKHVSGKILGFVY [RPS22A] are 2.82 ± 0.2, 2.67 ± 0.18, 2.97 ± 0.16 and 2.9 ± 0.097.
MQAIADSFSVPNRLVKE [PRE2]: the protein stability index was 2.94 ± 0.14 (doa10∆), 3.02 ± 0.24 (pdr5∆) and 3.03 ± 0.14 (san1∆).
With ELAQYMKTNVHTQANEP [RGR1], the protein stability index is, setting by setting: (doa10∆) 2.81 ± 0.081; (pdr5∆) 2.99 ± 0.086; (san1∆) 2.75 ± 0.064; (ubr1∆) 2.75 ± 0.068.
In the same order, the values of LDKVINKELPINHTILG [RPN8] are 2.19 ± 0.077, 2.27 ± 0.08, 1.67 ± 0.13 and 2.4 ± 0.055.
As for RGPRNSREAVRHFGMGP [RPL18A], the protein stability index by setting is: (doa10∆) 2.53 ± 0.25; (pdr5∆) 2.86 ± 0.18.
Take PRGLNSARKLRVHRRNN [RPS23A]: the protein stability index is 2.39 ± 0.088 (doa10∆), 3.06 ± 0.079 (pdr5∆), 2.96 ± 0.096 (san1∆) and 2.8 ± 0.073 (ubr1∆).
In the same order, the values of QELKLTCVAKKGIAKEH [RPB3] are 3.09 ± 0.23, 3.18 ± 0.13, 2.92 ± 0.1 and 2.96 ± 0.095.
For the sequence YGNDEEVLFYEDNYNPK [RPN4], the protein stability index was determined as 3.11 ± 0.094 (doa10∆), 3.2 ± 0.12 (pdr5∆), 3.12 ± 0.097 (san1∆) and 2.96 ± 0.074 (ubr1∆).
ELGAINLHALSMSLQSK [SWI1]: the protein stability index came to 2.39 ± 0.058 (doa10∆), 2.33 ± 0.085 (pdr5∆), 1.99 ± 0.27 (san1∆) and 2.46 ± 0.076 (ubr1∆).
On to ETLKRDRKQSQATNATN [ARP7], for which the protein stability index runs as follows: (doa10∆) 2.69 ± 0.074; (pdr5∆) 2.86 ± 0.082; (san1∆) 2.39 ± 0.11; (ubr1∆) 2.74 ± 0.068.
In the same order, the values of VSKSEPKFFLGEENRVR [QCR2] are 3.42 ± 0.097, 3.18 ± 0.077, 3.13 ± 0.053 and 3.26 ± 0.048.
DQEIVIQQLHSVLNPFL [ISW2] registered a protein stability index (doa10∆) of 2.3 ± 0.042, a protein stability index (pdr5∆) of 2.09 ± 0.042, a protein stability index (san1∆) of 1.98 ± 0.056 and a protein stability index (ubr1∆) of 2.26 ± 0.032.
The like results for ERLDKDKDRDTRRKRRQ [SNF5] were, in that order, 2.82 ± 0.13, 3.27 ± 0.21, 2.9 ± 0.11 and 3.46 ± 0.13.
